Measurements taken from patent US20220073610A1 (CHANGCHUN GENESCIENCE PHARMACEUTICAL, published 2022).
Values belong to the binder of their own block, whether it stands above or below them.

How the values were obtained:
[1] = molecular target: T1, Human CD47-His (constructed by GeneScience) (human, UniProt Q08722 19-139); assay: SPR, Biacore T200, CD47-His coupled to chip, antibody as analyte
T1 construct: also called hCD47
Procedure: (§1) The affinities of antibodies with B2 structure and with FV1 structure were detected by Biacore T200 instrument. The specific protocols were as follows. Human PD-L1-His and human CD47-His were coupled to CMS biosensor chip (GE), and then the antibodies of different concentrations were flowed through the chip at a flow rate of 30 μL/min. The binding between the candidate antibody and antigen was performed with a binding time of 120 s and a dissociation time of 300 s. The kinetic fitting was performed using BIAevalution software (GE), and the results of affinity constants were obtained as shown in Table 2 and Table 3.

Human PD-L1-His = molecular target: T2, Human PD-L1-His (human, UniProt Q9NZQ7 19-238, limits assumed); assay: SPR, Biacore T200, PD-L1-His coupled to chip, antibody as analyte
T2 construct: not shown: His tag
Procedure: as §1

[2] = molecular target: Human PD-L1-mFc (constructed by GeneScience) (human); assay: bridging ELISA of Example 3: PD-L1-mFc coated, purified antibody titrated, CD47-His as second antigen; paragraph 132 prints the value without a unit, the unit is from the sheet's axis Antibody(ug/ml)
Procedure: (§2) 1. Coating the first antigen: Human PD-L1-mFc (constructed by GeneScience, SEQ ID NO: 22) was diluted with PBS to 1 μg/mL, and then added to a 96-well microtiter plate at 50 μL per well and incubated overnight at 4° C.
(§3) 4. Adding the second antigen: Human CD47-His (constructed by GeneScience, SEQ ID NO: 23) was diluted with PBS to 10 μg/mL, and then added to the 96-well microtiter plate at 50 μL per well and incubated at 25° C. for 1 hour.
(§4) 8. Detection: After terminating the reaction, the microtiter plate was immediately put into the microplate reader. The OD value at 450 nm was measured, and the original data was saved for sorting.

[3] = molecular target: T1, Human CD47-His (constructed by …); assay: as above
Procedure: as §2, §3, §4

human PD-L1 [4] = molecular target: T3, human PD-L1 (human, UniProt Q9NZQ7 19-238, limits assumed); assay: ELISA of transient expression product; the sheet names no antigen and shows one curve per antibody; format not stated for this figure, read as the PD-L1/CD47 bridging ELISA of Example 3
T3 construct: also called hPD-L1

human CD47 [5] = molecular target: T4, human CD47 (human, UniProt Q08722 19-139, limits assumed); assay: as above
T4 construct: also called hCD47

human PD-L1 [6] = molecular target: T3, human PD-L1; assay: ELISA of transient expression product; no antigen named on the sheet; PD-L1 Ab and CD47 Ab are both flat, so read as the PD-L1/CD47 bridging ELISA of Example 3; no unit beside the EC50, unit taken from the axis Antibody(ug/ml)
human CD47 [7] = molecular target: T4, human CD47; assay: as above

T4 sequence (Q08722 19-139 limits assumed): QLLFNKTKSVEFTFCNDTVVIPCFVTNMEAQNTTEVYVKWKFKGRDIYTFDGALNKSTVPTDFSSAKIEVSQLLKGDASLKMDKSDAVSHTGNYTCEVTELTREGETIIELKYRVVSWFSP
T1 sequence (Q08722 other isoform, or with tags, fused parts or gaps limits assumed): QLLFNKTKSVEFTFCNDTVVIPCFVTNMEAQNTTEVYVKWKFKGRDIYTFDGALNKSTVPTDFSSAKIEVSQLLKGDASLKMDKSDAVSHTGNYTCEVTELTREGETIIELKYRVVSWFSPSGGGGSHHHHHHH
T2 sequence (Q9NZQ7 19-238 limits assumed): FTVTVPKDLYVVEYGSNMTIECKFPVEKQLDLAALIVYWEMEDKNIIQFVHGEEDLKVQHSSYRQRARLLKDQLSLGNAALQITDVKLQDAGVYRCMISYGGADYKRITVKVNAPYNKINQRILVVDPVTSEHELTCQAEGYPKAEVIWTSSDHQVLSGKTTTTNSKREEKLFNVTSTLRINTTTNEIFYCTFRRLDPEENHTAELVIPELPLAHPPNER
T3 sequence (Q9NZQ7 19-238 limits assumed): as above
Chain of Human PD-L1-mFc (constructed by GeneScience) (human) (chain, as listed by the source limits assumed): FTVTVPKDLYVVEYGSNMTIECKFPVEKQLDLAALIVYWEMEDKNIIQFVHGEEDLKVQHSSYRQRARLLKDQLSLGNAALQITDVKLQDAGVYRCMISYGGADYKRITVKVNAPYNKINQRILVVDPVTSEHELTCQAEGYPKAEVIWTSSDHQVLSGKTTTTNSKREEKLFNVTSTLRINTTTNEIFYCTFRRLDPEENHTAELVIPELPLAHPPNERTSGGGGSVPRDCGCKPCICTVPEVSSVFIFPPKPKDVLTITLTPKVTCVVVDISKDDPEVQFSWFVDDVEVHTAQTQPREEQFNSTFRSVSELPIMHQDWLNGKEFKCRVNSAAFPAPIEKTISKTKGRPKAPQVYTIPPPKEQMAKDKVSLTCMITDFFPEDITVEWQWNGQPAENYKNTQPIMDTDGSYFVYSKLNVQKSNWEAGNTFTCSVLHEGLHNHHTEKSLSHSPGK

B2: B4 (bispecific antibody)
chain 1: QVQLVQSGAEVKKPGASVKVSCKASGYTFTNYVLHWVRQAPGQRLEWMGYFNPYNDDSKYNEKFKGRVTITRDTSASTAYMELSSLRSEDTAVYYCARGGYYSMDYWGQGTLVTVSSGGGGSGGGGSGGGGSASDIVMTQTPLSLPVTPGQPASISCRASQSLAHSNGYTYLQWYLQKPGQSPQLLIYKVSKRFSGVPDRFSGSGSGTDFTLKISRVEAEDVGVYYCSQSTHVPYTFGQGTKVEIKASTKGPSVFPLAPSSKSTSGGTAALGCLVKDYFPEPVTVSWNSGALTSGVHTFPAVLQSSGLYSLSSVVTVPSSSLGTQTYICNVNHKPSNTKVDKKVEPKSCDK
chain 2: RTVAAPSVFIFPPSDEQLKSGTASVVCLLNNFYPREAKVQWKVDNALQSGNSQESVTEQDSKDSTYSLSSTLTLSKADYEKHKVYACEVTHQGLSSPVTKSFNRGECEVQLVESGGGLVQPGGSLRLSCAASYFPFSDSWIHWVRQAPGKGLEWVAWISPYGGSSYYADSVQDRFTISADTSKNTAYLQMNSLRAEDTAVYYCAKRHWPGGFDHWGQGTLVTVSSGGGGSGGGGSGGGGSASDIQMTQSPSSLSASVGDRVTITCSASQDVTTAVAWYQQKPGKAPKLLIYSASFPYRGVPSRFSGSGSGTDFTLTISSLQPEDFATYYCQQYMYHPSTFGQGTKVEIK
notes: also called B4 structure; H4+L4
EC50 (read off the curve) (human PD-L1 [4]): ~0.09 µg/mL
EC50 (read off the curve) (human CD47 [5]): ~0.09 µg/mL

B4: FV2 (bispecific antibody, human IgG1, kappa)
chain 1: not shown
chain 2: DIQMTQSPSSLSASVGDRVTITCSASQDVTTAVAWYQQKPGKAPKLLIYSASFPYRGVPSRFSGSGSGTDFTLTISSLQPEDFATYYCQQYMYHPSTFGQGTKVEIKRTVAAPSVFIFPPSDEQLKSGTASVVCLLNNFYPREAKVQWKVDNALQSGNSQESVTEQDSKDSTYSLSSTLTLSKADYEKHKVYACEVTHQGLSSPVTKSFNRGEC
chain 3: not shown
chain 4: DVVMTQTPLSLPVSLGDQASISCRSSQSLVHSKGNTYLHWYLQKPGQSPKLLIYRVSNRFSGVPDRFSGSGSGTDFTLKISRVEAEDLGVYFCSQSTHVPFTFGSGTKLEIKSGGGGSASLGGC
notes: also called FV2 structure; H5+L5+H7+L7
EC50 (human PD-L1 [6]): 0.186 µg/mL
EC50 (human CD47 [7]): 0.186 µg/mL

B5: FV3 (bispecific antibody, human IgG1, kappa)
chain 1: not shown
chain 2: DIQMTQSPSSLSASVGDRVTITCSASQDVTTAVAWYQQKPGKAPKLLIYSASFPYRGVPSRFSGSGSGTDFTLTISSLQPEDFATYYCQQYMYHPSTFGQGTKVEIKRTVAAPSVFIFPPSDEQLKSGTASVVCLLNNFYPREAKVQWKVDNALQSGNSQESVTEQDSKDSTYSLSSTLTLSKADYEKHKVYACEVTHQGLSSPVTKSFNRGEC
chain 3: not shown
chain 4: DVVMTQTPLSLPVSLGDQASISCRSSQSLVHSKGNTYLHWYLQKPGQSPKLLIYRVSNRFSGVPDRFSGSGSGTDFTLKISRVEAEDLGVYFCSQSTHVPFTFGSGTKLEIKGGGGSGGGGSGGGGSASLGGC
notes: also called FV3 structure; H5+L5+H8+L8
EC50 (human PD-L1 [6]): 0.179 µg/mL
EC50 (human CD47 [7]): 0.179 µg/mL

B7: B1 (bispecific antibody)
chain 1: ASTKGPSVFPLAPSSKSTSGGTAALGCLVKDYFPEPVTVSWNSGALTSGVHTFPAVLQSSGLYSLSSVVTVPSSSLGTQTYICNVNHKPSNTKVDKKVEPKSCDKQVQLVQSGAEVKKPGASVKVSCKASGYTFTNYVLHWVRQAPGQRLEWMGYFNPYNDDSKYNEKFKGRVTITRDTSASTAYMELSSLRSEDTAVYYCARGGYYSMDYWGQGTLVTVSSGGGGSGGGGSGGGGSASDIVMTQTPLSLPVTPGQPASISCRASQSLAHSNGYTYLQWYLQKPGQSPQLLIYKVSKRFSGVPDRFSGSGSGTDFTLKISRVEAEDVGVYYCSQSTHVPYTFGQGTKVEIK
chain 2: EVQLVESGGGLVQPGGSLRLSCAASYFPFSDSWIHWVRQAPGKGLEWVAWISPYGGSSYYADSVQDRFTISADTSKNTAYLQMNSLRAEDTAVYYCAKRHWPGGFDHWGQGTLVTVSSGGGGSGGGGSGGGGSASDIQMTQSPSSLSASVGDRVTITCSASQDVTTAVAWYQQKPGKAPKLLIYSASFPYRGVPSRFSGSGSGTDFTLTISSLQPEDFATYYCQQYMYHPSTFGQGTKVEIKRTVAAPSVFIFPPSDEQLKSGTASVVCLLNNFYPREAKVQWKVDNALQSGNSQESVTEQDSKDSTYSLSSTLTLSKADYEKHKVYACEVTHQGLSSPVTKSFNRGEC
notes: also called B1 structure; H1+L1
EC50 (read off the curve) (human PD-L1 [4]): ~0.2 µg/mL
EC50 (read off the curve) (human CD47 [5]): ~0.2 µg/mL

Next, values leading:

Kd [1]: 25.8 nM
Kd (Human PD-L1-His): 0.109 nM
koff (Human PD-L1-His): 4.28e-05 s⁻¹
kon (Human PD-L1-His): 395000 M⁻¹ s⁻¹
EC50 [2]: 0.564 µg/mL
EC50 [3]: 0.564 µg/mL
B1: bivalent bispecific antibody with B2 structure (H2+L2) (bispecific antibody)
heavy: ASTKGPSVFPLAPSSKSTSGGTAALGCLVKDYFPEPVTVSWNSGALTSGVHTFPAVLQSSGLYSLSSVVTVPSSSLGTQTYICNVNHKPSNTKVDKKVEPKSCDKEVQLVESGGGLVQPGGSLRLSCAASYFPFSDSWIHWVRQAPGKGLEWVAWISPYGGSSYYADSVQDRFTISADTSKNTAYLQMNSLRAEDTAVYYCAKRHWPGGFDHWGQGTLVTVSSGGGGSGGGGSGGGGSASDIQMTQSPSSLSASVGDRVTITCSASQDVTTAVAWYQQKPGKAPKLLIYSASFPYRGVPSRFSGSGSGTDFTLTISSLQPEDFATYYCQQYMYHPSTFGQGTKVEIK
light: QVQLVQSGAEVKKPGASVKVSCKASGYTFTNYVLHWVRQAPGQRLEWMGYFNPYNDDSKYNEKFKGRVTITRDTSASTAYMELSSLRSEDTAVYYCARGGYYSMDYWGQGTLVTVSSGGGGSGGGGSGGGGSASDIVMTQTPLSLPVTPGQPASISCRASQSLAHSNGYTYLQWYLQKPGQSPQLLIYKVSKRFSGVPDRFSGSGSGTDFTLKISRVEAEDVGVYYCSQSTHVPYTFGQGTKVEIKRTVAAPSVFIFPPSDEQLKSGTASVVCLLNNFYPREAKVQWKVDNALQSGNSQESVTEQDSKDSTYSLSSTLTLSKADYEKHKVYACEVTHQGLSSPVTKSFNRGEC
notes: The two chains form a heterodimer through a CL-hinge disulfide bond, and there is no Fc; also called B2 bispecific antibody; preferred antibody B2

EC50 (human PD-L1 [6]): 0.0887 µg/mL
EC50 (human CD47 [7]): 0.0887 µg/mL
Kd [1]: 15 nM
Kd (Human PD-L1-His): 0.271 nM
koff (Human PD-L1-His): 0.000119 s⁻¹
kon (Human PD-L1-His): 440000 M⁻¹ s⁻¹
EC50 [2]: 1.66 µg/mL
EC50 [3]: 1.66 µg/mL
B3: bivalent bispecific antibody with FV1 structure (H5+L5+H6+L6) (bispecific antibody, human IgG1, kappa)
heavy 1: not shown
light 1: DIQMTQSPSSLSASVGDRVTITCSASQDVTTAVAWYQQKPGKAPKLLIYSASFPYRGVPSRFSGSGSGTDFTLTISSLQPEDFATYYCQQYMYHPSTFGQGTKVEIKRTVAAPSVFIFPPSDEQLKSGTASVVCLLNNFYPREAKVQWKVDNALQSGNSQESVTEQDSKDSTYSLSSTLTLSKADYEKHKVYACEVTHQGLSSPVTKSFNRGEC
heavy 2: not shown
light 2: DVVMTQTPLSLPVSLGDQASISCRSSQSLVHSKGNTYLHWYLQKPGQSPKLLIYRVSNRFSGVPDRFSGSGSGTDFTLKISRVEAEDLGVYFCSQSTHVPFTFGSGTKLEIKLGGC
notes: It is IgG1-based with knob-into-hole CH3 domains; also called FV1 bispecific antibody

EC50 (human PD-L1 [6]): 0.146 µg/mL
EC50 (human CD47 [7]): 0.146 µg/mL
B6: FV4 (bispecific antibody, human IgG1, kappa)
chain 1: not shown
chain 2: DIQMTQSPSSLSASVGDRVTITCSASQDVTTAVAWYQQKPGKAPKLLIYSASFPYRGVPSRFSGSGSGTDFTLTISSLQPEDFATYYCQQYMYHPSTFGQGTKVEIKRTVAAPSVFIFPPSDEQLKSGTASVVCLLNNFYPREAKVQWKVDNALQSGNSQESVTEQDSKDSTYSLSSTLTLSKADYEKHKVYACEVTHQGLSSPVTKSFNRGEC
chain 3: not shown
chain 4: DVVMTQTPLSLPVSLGDQASISCRSSQSLVHSKGNTYLHWYLQKPGQSPKLLIYRVSNRFSGVPDRFSGSGSGTDFTLKISRVEAEDLGVYFCSQSTHVPFTFGSGTKLEIKSGGGGSASLGGC
notes: also called FV4 structure; H5+L5+H9+L7
